# Assay results taken from US20190218479A1, “Stabilized Liquid Peroxide Compositions” (Novozymes A/S, priority 2016, published 2019).
# B1: Subtilisin1: subtilisin with amino acid sequence SEQ ID NO: 2, having a M216 substitution according to the invention (protein)
# chain: AQSVPWGISRVQAPAAHNRGLTGSGVKVAVLDTGISTHPDLNIRGGASFVPGEPSTQDGNGHGTHVAGTIAALNNSIGVLGVAPSAELYAVKVLGASGSGSVSSIAQGLEWAGNNGMHVANLSLGSPSPSATLEQAVNSATSRGVLVVAASGNSGAGSISYPARYANAMAVGATDQNNNRASFSQYGAGLDIVAPGVNVQSTYPGSTYASLNGTSSATPHVAGAAALVKQKNPSWSNVQIRNHLKNTATSLGSTNLYGSGLVNAEAATR
# modifications: Variant of SEQ ID NO 1
# Key:
# Type in all cases: physicochemical
# [1] = Residual hydrogen peroxide after storage, permanganate titration
# Experimental: Residual hydrogen peroxide (H2O2) was measured by permanganate titration (reduction of potassium permanganate by hydrogen peroxide in sulfuric acid).
# [2] = Stability of Subtilisin1 and Subtilisin2 in the liquid peroxide composition of Table 1 (residual protease activity, N,N-dimethylcasein/TNBS); conditions: for % Subtilisin residual activity after 4 weeks: liquid peroxide composition in Table 1 (0.8% H2O2, pH 7.0)
# Experimental: (§1) The compositions were prepared as shown in the examples and samples stored in closed vials for storage. Residual activity was measured by comparing activity in a stored sample at the time of taken out of incubation without freezing and comparing activity to a freshly prepared sample without peroxide and dividing activity in the stored sample with activity in the fresh sample.
# (§2) Activity analysis is performed by analysing protease activity by hydrolysis of N,N-dimethylcasein to produce a carboxylic acid and a primary amine compounds. The primary amines that are formed react, under alkaline conditions, with tri-nitrobenzenesulfonic acid (TNBS) to form a colored complex. The amount of colored complex that forms over the fixed reaction period at a constant temperature (530 seconds at 40° C.; complex absorbance is measured at 405 nm) is related to the amount of active protease present in the sample. The amount of colored product complex produced is compared to a standard curve based on known protease concentrations to calculate the amount of active protease in the detergent sample. The amount of protease activity at a specific time point is compared to the t=0 activity level to calculate the % active protease remaining.
# [3] = target: T1, Subtilisin1 (Lederbergia lenta, UniProt P29600, M216S); assay: Residual activity of Subtilisin1 after storage in peroxide model detergents with or without subtilisin stabilizers (N,N-dimethylcasein/TNBS)
# Source text: Chemicals used as buffers and substrates were commercial products of at least reagent grade. Subtilisin1 has the amino acid sequence as shown in SEQ ID NO: 2, which is a subtilisin having a M216 substitution according to the invention. Subtilisin2 has the amino acid sequence as shown in SEQ ID NO: 1, which is a reference subtilisin not covered by the invention. The stock solution of each subtilisin contains 4.4% w/w of active enzyme protein. Stabilizer1: Cbz-Gly-Ala-Tyr-H (C-terminal aldehyde), wherein Cbz is benzyloxycarbonyl; which is a subtilisin stabilizer according to the invention. When used in the examples below, Stabilizer1 was added to the subtilisin stock solution at a concentration of 0.28% w/w. Stabilizer2: Cbz-Gly-Ala-NHCH(CH2C6H4pOH)CH(OH)(OSO3)Na (hydrosulfite adduct of a C-terminal aldehyde) wherein Cbz is benzyloxycarbonyl; which is a subtilisin stabilizer according to the invention. When used in the examples below, Stabilizer2 was added to the subtilisin stock solution at a concentration of 0.35% w/w. Stabilizer3: MeOCO-Val-Ala-Leu-H (C-terminal aldehyde). When used in the examples below, Stabilizer3 was added to the subtilisin stock solution at a concentration of 0.28% w/w. Stabilizer4: 4-formyl-phenyl-boronic acid (4-FPBA); which is a reference protease stabilizer not covered by the invention. When used in the examples below, Stabilizer4 was added to the subtilisin stock solution at a concentration of 3.4% w/w.
# as §1, §2
# This study examined Subtilisin1 stability in the presence of hydrogen peroxide, with and without subtilisin stabilizers (Stabilizer4 and Stabilizer2) in two different model detergents at pH 7 and 9.
# [4] = target: T1, Subtilisin1; assay: as above; remark: listed apart in the source
molecule,measurement,setting,value
B1,Residual H2O2 after 4 weeks,"[1]; liquid peroxide composition in Table 1, 22° C.",99.0%
same,Residual H2O2 after 4 weeks,"[1]; liquid peroxide composition in Table 1, 30° C.",98.7%
same,Residual H2O2 after 4 weeks,"[1]; liquid peroxide composition in Table 1, 37° C.",97.8%
same,Residual H2O2 (after storage),"[1]; nonionic laundry detergent in Table 7, relative to initially added H2O2 = 1%, 22° C., pH 7",95%
same,Residual H2O2 (after storage),"[1]; nonionic laundry detergent in Table 7, relative to initially added H2O2 = 1%, 22° C., pH 9",95%
same,Residual H2O2 (after storage),"[1]; nonionic laundry detergent in Table 7, relative to initially added H2O2 = 1%, 30° C., pH 7",94%
same,Residual H2O2 (after storage),"[1]; nonionic laundry detergent in Table 7, relative to initially added H2O2 = 1%, 30° C., pH 9",94%
same,Residual H2O2 (after storage),"[1]; nonionic laundry detergent in Table 7, relative to initially added H2O2 = 1%, 37° C., pH 7",92%
same,Residual H2O2 (after storage),"[1]; nonionic laundry detergent in Table 7, relative to initially added H2O2 = 1%, 37° C., pH 9",91%
same,Residual H2O2 (after storage),"[1]; nonionic pretreatment detergent in Table 4, relative to initially added H2O2 = 1%, 22° C., pH 7",≥100%
same,Residual H2O2 (after storage),"[1]; nonionic pretreatment detergent in Table 4, relative to initially added H2O2 = 1%, 22° C., pH 9",93%
same,Residual H2O2 (after storage),"[1]; nonionic pretreatment detergent in Table 4, relative to initially added H2O2 = 1%, 30° C., pH 7",≥100%
same,Residual H2O2 (after storage),"[1]; nonionic pretreatment detergent in Table 4, relative to initially added H2O2 = 1%, 30° C., pH 9",91%
same,Residual H2O2 (after storage),"[1]; nonionic pretreatment detergent in Table 4, relative to initially added H2O2 = 1%, 37° C., pH 7",≥100%
same,Residual H2O2 (after storage),"[1]; nonionic pretreatment detergent in Table 4, relative to initially added H2O2 = 1%, 37° C., pH 9",90%
same,Residual H2O2 (after storage),"[1]; nonionic/anionic laundry detergent in Table 13, relative to initially added H2O2 = 1%, 22° C., pH 7",101%
same,Residual H2O2 (after storage),"[1]; nonionic/anionic laundry detergent in Table 13, relative to initially added H2O2 = 1%, 22° C., pH 9",95%
same,Residual H2O2 (after storage),"[1]; nonionic/anionic laundry detergent in Table 13, relative to initially added H2O2 = 1%, 30° C., pH 7",99%
same,Residual H2O2 (after storage),"[1]; nonionic/anionic laundry detergent in Table 13, relative to initially added H2O2 = 1%, 30° C., pH 9",92%
same,Residual H2O2 (after storage),"[1]; nonionic/anionic laundry detergent in Table 13, relative to initially added H2O2 = 1%, 37° C., pH 7",101%
same,Residual H2O2 (after storage),"[1]; nonionic/anionic laundry detergent in Table 13, relative to initially added H2O2 = 1%, 37° C., pH 9",97%
same,Residual H2O2 (after storage),"[1]; nonionic/anionic pretreatment detergent in Table 10, relative to initially added H2O2 = 1%, 22° C., pH 7",88%
same,Residual H2O2 (after storage),"[1]; nonionic/anionic pretreatment detergent in Table 10, relative to initially added H2O2 = 1%, 30° C., pH 7",86%
same,Residual H2O2 (after storage),"[1]; nonionic/anionic pretreatment detergent in Table 10, relative to initially added H2O2 = 1%, 37° C., pH 7",100%
same,Residual H2O2 (after storage),"[1]; nonionic/anionic pretreatment detergent in Table 10, relative to initially added H2O2 = 1%, 37° C., pH 9",95%
same,Residual H2O2 (after storage),"[1]; nonionic/anionic pretreatment detergent in Table 16, relative to initially added H2O2 = 2%, 22° C., pH 7",87%
same,Residual H2O2 (after storage),"[1]; nonionic/anionic pretreatment detergent in Table 16, relative to initially added H2O2 = 2%, 30° C., pH 7",84%
same,Residual H2O2 (after storage),"[1]; nonionic/anionic pretreatment detergent in Table 16, relative to initially added H2O2 = 2%, 37° C., pH 7",90%
same,Residual H2O2 (after storage),"[1]; nonionic/anionic pretreatment detergent in Table 16, relative to initially added H2O2 = 2%, 37° C., pH 9",92%
same,% Subtilisin residual activity after 4 weeks,[2]; 22° C.,81%
same,% Subtilisin residual activity after 4 weeks,[2]; 30° C.,61%
same,% Subtilisin residual activity after 4 weeks,[2]; 37° C.,46%
same,"stability in the liquid peroxide composition, compared with Subtilisin2","[2]; liquid peroxide composition in Table 1, summary of Table 2",much better
same,Residual activity of Subtilisin1 after storage,"[3]; liquid nonionic laundry detergent in Table 7 (1.0% H2O2), 22° C., pH 7",63%
same,Residual activity of Subtilisin1 after storage,"[3]; liquid nonionic laundry detergent in Table 7 (1.0% H2O2), 22° C., pH 9",75%
same,Residual activity of Subtilisin1 after storage,"[3]; liquid nonionic laundry detergent in Table 7 (1.0% H2O2), 30° C., pH 7",47%
same,Residual activity of Subtilisin1 after storage,"[3]; liquid nonionic laundry detergent in Table 7 (1.0% H2O2), 30° C., pH 9",68%
same,Residual activity of Subtilisin1 after storage,"[3]; liquid nonionic laundry detergent in Table 7 (1.0% H2O2), 37° C., pH 7",30%
same,Residual activity of Subtilisin1 after storage,"[3]; liquid nonionic laundry detergent in Table 7 (1.0% H2O2), 37° C., pH 9",45%
same,Residual activity of Subtilisin1 after storage,"[3]; liquid nonionic pretreatment detergent in Table 4 (1.0% H2O2), 22° C., pH 7",85%
same,Residual activity of Subtilisin1 after storage,"[3]; liquid nonionic pretreatment detergent in Table 4 (1.0% H2O2), 22° C., pH 9",40%
same,Residual activity of Subtilisin1 after storage,"[3]; liquid nonionic pretreatment detergent in Table 4 (1.0% H2O2), 30° C., pH 7",65%
same,Residual activity of Subtilisin1 after storage,"[3]; liquid nonionic pretreatment detergent in Table 4 (1.0% H2O2), 30° C., pH 9",19%
same,Residual activity of Subtilisin1 after storage,"[3]; liquid nonionic pretreatment detergent in Table 4 (1.0% H2O2), 37° C., pH 7",44%
same,Residual activity of Subtilisin1 after storage,"[3]; liquid nonionic pretreatment detergent in Table 4 (1.0% H2O2), 37° C., pH 9",12%
same,Residual activity of Subtilisin1 after storage,"[3]; liquid nonionic/anionic laundry detergent in Table 13 (1.0% H2O2), 22° C., pH 7",84%
same,Residual activity of Subtilisin1 after storage,"[3]; liquid nonionic/anionic laundry detergent in Table 13 (1.0% H2O2), 22° C., pH 9",63%
same,Residual activity of Subtilisin1 after storage,"[3]; liquid nonionic/anionic laundry detergent in Table 13 (1.0% H2O2), 30° C., pH 7",62%
same,Residual activity of Subtilisin1 after storage,"[3]; liquid nonionic/anionic laundry detergent in Table 13 (1.0% H2O2), 30° C., pH 9",34%
same,Residual activity of Subtilisin1 after storage,"[3]; liquid nonionic/anionic laundry detergent in Table 13 (1.0% H2O2), 37° C., pH 7",40%
same,Residual activity of Subtilisin1 after storage,"[3]; liquid nonionic/anionic laundry detergent in Table 13 (1.0% H2O2), 37° C., pH 9",23%
same,Residual activity of Subtilisin1 after storage,"[3]; liquid nonionic/anionic pretreatment detergent in Table 10 (1.0% H2O2), 22° C., pH 7",79%
same,Residual activity of Subtilisin1 after storage,"[3]; liquid nonionic/anionic pretreatment detergent in Table 10 (1.0% H2O2), 22° C., pH 9",57%
same,Residual activity of Subtilisin1 after storage,"[3]; liquid nonionic/anionic pretreatment detergent in Table 10 (1.0% H2O2), 30° C., pH 7",66%
same,Residual activity of Subtilisin1 after storage,"[3]; liquid nonionic/anionic pretreatment detergent in Table 10 (1.0% H2O2), 30° C., pH 9",47%
same,Residual activity of Subtilisin1 after storage,"[3]; liquid nonionic/anionic pretreatment detergent in Table 10 (1.0% H2O2), 37° C., pH 7",52%
same,Residual activity of Subtilisin1 after storage,"[3]; liquid nonionic/anionic pretreatment detergent in Table 10 (1.0% H2O2), 37° C., pH 9",29%
same,Residual activity of Subtilisin1 after storage,"[3]; liquid nonionic/anionic pretreatment detergent in Table 16 (2.0% H2O2), 22° C., pH 7",85%
same,Residual activity of Subtilisin1 after storage,"[3]; liquid nonionic/anionic pretreatment detergent in Table 16 (2.0% H2O2), 22° C., pH 9",30%
same,Residual activity of Subtilisin1 after storage,"[3]; liquid nonionic/anionic pretreatment detergent in Table 16 (2.0% H2O2), 30° C., pH 7",69%
same,Residual activity of Subtilisin1 after storage,"[3]; liquid nonionic/anionic pretreatment detergent in Table 16 (2.0% H2O2), 30° C., pH 9",12%
same,Residual activity of Subtilisin1 after storage,"[3]; liquid nonionic/anionic pretreatment detergent in Table 16 (2.0% H2O2), 37° C., pH 7",50%
same,Residual activity of Subtilisin1 after storage,"[3]; liquid nonionic/anionic pretreatment detergent in Table 16 (2.0% H2O2), 37° C., pH 9",5%
same,Residual activity after storage for 2 weeks at 30° C.,"[4]; Subtilisin1 in “Mix Laundry” (Table 19, pH 7.5) no H2O2, no sodium salicylate, no polyDADMAC",73%
same,Residual activity after storage for 2 weeks at 30° C.,"[4]; Subtilisin1 in “Mix Laundry” (Table 19, pH 7.5) with 1% H2O2, with sodium salicylate, with polyDADMAC",42%
same,Residual activity after storage for 2 weeks at 37° C.,"[4]; Subtilisin1 in “NI pretreat” (Table 19, pH 7.0) with 1% H2O2, with sodium salicylate, with polyDADMAC",38%
same,Residual activity after storage for 2 weeks at 37° C.,"[4]; Subtilisin1 in “NI pretreat” (Table 19, pH 7.0) without H2O2, no sodium salicylate, no polyDADMAC",82%
